Key:
[1] = test system: pancreatic cancer; settings: cited from earlier work
[2] = test system: Panc-1 engrafted mice; assay: Anti-tumor effects in Panc-1 (PANC-Luc) engrafted NOD/SCID mice; assay type: in vivo; settings: P19 conjugates 1 nmol tail vein; gemcitabine 3 mg I.P.; listed as Gemcitabine
Procedure: To establish the traceable tumor animal models, subcutaneous implantations were performed by injecting 25 μl of a monocellular suspension containing 10^6 Panc-1 cell with luciferase expression (PANC-Luc) cells and a 25p growth factor reduced matrigel matrix (BD Biosciences, USA) under the dorsal skin of 6-week-old female NOD/SCID mice (BioLasco Co., Taiwan). The firefly luciferase fragment was inserted into the pcDNA-3.1(+) backbone encoding ampicillin resistance for selection in bacteria and neo gene for selection in mammalian cells. The recombinant constructs for stable cell line were purified using plasmid midi kit (QIAGEN, USA). PANC-1 cells were transfected with recombinant constructs for 24 h. The following day, culture medium was replaced with standard medium containing 1.2 mg/mL G418 (Merck, Germany) for stable clone selection. […] Luciferase expression was assessed using the Luciferase Assay System. […] Tumor growth was monitored by evaluating bioluminescence using the spectrum of IVIS 200 before first injection and one week after last injection. […] The mice were imaged in the spectrum of IVIS 200 and bioluminescent signals were analyzed using Living Image Software (Caliper Life Sciences, Alameda, Calif.). Tumor size was measured by ruler and calculated by the formula 0.52*length*width*width

[3] = Cytotoxicity compared with gemcitabine (hemoglobin, WBC, neutrophil, platelet counts); assay type: in vivo; settings: engrafted mice
Procedure: FIG. 5A-5F. In vivo experiments. (FIG. 5A) The conjugates of P19 and P1 was injected via tail vein injection in Panc-1 engrafted mice. The conjugates were injected day 1, 3 and 5 for 3 or 4 weeks. Student t-test (unpaired, two-tailed) was used for statistical analysis. *t-test: […] (FIG. 5B) The photon was counter by I.V.I.S and signal changes were calculated in traceable xenoengrafted mice. (FIG. 5C) The representative images of the spectrum of IVIS 200 of each group. (FIG. 5D) Comparison of anti-tumor effect of C/EBPα-saRNA with gemcitabine in Panc-1 engrafted mice by tail vein injection. Tumor size was measured. *t-test: […] (FIG. 5E) The tumor growth inhibition of gemcitabine-resistant ASPC-1 engrafted mice by tail vein injection. Signal changes were calculated. Metastasis to ascites was measured. *t-test: […] (FIG. 5F) Comparison of cytotoxicity with gemcitabine. Hemoglobin, WBC, neutrophil and platelet were counted.

[4] = test system: pancreatic cell lines PANC-1, AsPC-1, MIA PaCa and Capan-1; assay: Live cell confocal internalization in pancreatic cancer cell lines; assay type: cell-based, human; settings: Cy3-labeled RNA 100 nM
Procedure: (§1) For the internalization, the cells were grown in 35 mm glass bottom dishes (MatTek, Ashland, Mass., USA) with seeding at 1×10^5 cells in medium for 24 hrs. The RNAs were labeled with Cy3 using the Cy3 Silencer siRNA labeling kit (Ambion, Tex., USA.). Cy3-labeled RNAs at 100 nM were added to the cells and incubated for 1 hour. The images were taken using a Zeiss LSM 510 Meta Inverted 2 photon confocal microscope system using a C-Apo 40×/1.2 NA Water immersion objective.

[5] = test system: Panc-1; assay: Binding to Panc-1 cells by flow cytometry with Cy3-labeled aptamers (KD); set-up: species or system human; settings: Cy3 labeled aptamers 15.6-500 nM, MFI, one site binding non-linear regression; read-out: binding affinity (Kd)
Procedure: Aptamer binding and uptake was also assessed by flow cytometry. For the assay, cells were detached using a non-enzymatic cell dissociation solution, washed with PBS and suspended in binding buffer. Next, Cy3-labeled aptamers were added and incubated for 1 hours at 37° C. The binding of individual aptamers for the starting pool as a control to pancreatic cancer cells was performed in triplicate. Flow cytometry was performed on a Cyan (Beckman Coulter counter) and Fortessa. The data were analyzed with FlowJo software.
To determine the binding affinity of aptamers to Panc-1, the median fluorescence intensity (MFI) of each concentrations was determined and subtracted the mean fluorescence background of controls from the corresponding MFI of aptamers described by Sefah et al^53. The dissociation constants were calculated using one site binding non-linear curve regression with a Graph Pad Prism (GraphPad Software, La Jolla, Calif., USA).

[6] = test system: Non pancreatic lines including Huh7, HepG2, MCF7 and PC3 cells; assay: Confocal internalization / cell binding in non pancreatic cancer lines; assay type: cell-based; settings: Cy3-labeled RNA, liver, breast and prostate cancer lines
Procedure: as §1

[7] = test system: human pancreatic cancer and normal pancreas tissue specimens; assay: Histopathology staining with Cy3 labeled aptamers, aptamer score; settings: for No. of Patients, Low (<7) staining / No. of Patients, Medium (>7 and <14) staining / No. of Patients, High (>14 and <20) staining: 72 patient samples; for No. of Patients, Low (<7) staining: aptamer score <7; for No. of Patients, Medium (>7 and <14) staining: aptamer score >7 and <14; for No. of Patients, High (>14 and <20) staining: aptamer score >14 and <20; for recognition of pancreatic cancer versus normal pancreas tissues: Cy3 labeled aptamer, histopathology; for Survival Period, High (>14 and <20) staining group / Survival Period, Low (<7) staining group / Survival Period, Medium (>7 and <14) staining group: Table 5, Mean ± SD
Procedure: The samples were stained by aptamer P1 and P19 respectively. We linked P1 and P19 with Cy3 as marker and DAPI stating was performed for cell nuclei as background. The sample sections were then examined under microscope at 100× magnification, and the aptamer content in each slide of pancreatic cancer was determined by measuring the average of positive-stained particle numbers in five independent fields randomly.
A total of 72 patients (45 male and 27 female) of pancreatic adenocarcinoma had undergone surgical intervention between January 2008 and December 2010 in National Taiwan University Hospital. Diagnosis was settled by pathologic analysis of specimen. All of the enrolled patients fulfilled the informed consent to receive the procedure, and this study was Institutional Review Board approved of NTUH.

[8] = target: T1, mortalin (mitochondrial Hsp70) (Homo sapiens, UniProt P38646); assay: Gel shift assay; assay type: binding; settings: native PAGE
T1 sequence (P38646 47-679): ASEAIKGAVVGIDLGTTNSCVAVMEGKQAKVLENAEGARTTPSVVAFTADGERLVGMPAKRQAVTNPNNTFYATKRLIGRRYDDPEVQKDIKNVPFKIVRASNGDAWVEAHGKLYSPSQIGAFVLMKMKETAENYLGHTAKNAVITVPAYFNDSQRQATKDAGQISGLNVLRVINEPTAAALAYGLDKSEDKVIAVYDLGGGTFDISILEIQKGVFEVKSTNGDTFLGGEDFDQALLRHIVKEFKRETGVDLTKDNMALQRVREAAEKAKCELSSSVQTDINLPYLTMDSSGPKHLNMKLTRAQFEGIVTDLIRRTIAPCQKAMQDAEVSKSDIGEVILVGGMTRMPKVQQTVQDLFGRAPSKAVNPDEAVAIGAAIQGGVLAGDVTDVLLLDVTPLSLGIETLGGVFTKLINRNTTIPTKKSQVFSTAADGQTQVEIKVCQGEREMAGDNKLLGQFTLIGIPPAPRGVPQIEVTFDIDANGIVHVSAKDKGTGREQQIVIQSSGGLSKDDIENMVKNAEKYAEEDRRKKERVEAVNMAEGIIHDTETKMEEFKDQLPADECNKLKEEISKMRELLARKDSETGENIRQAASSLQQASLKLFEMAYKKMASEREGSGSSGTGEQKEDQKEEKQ
From the text: (§2) P1 and P19 were labeled with biotin at the 3′ end. Target membrane proteins were isolated following procedures described by Daniels et al^26 or extracted by ProteoExtract Native Membrane protein Extraction Kit (Calbiochem). Agilent 6520 Q-TOF mass spectrometer used to identify aptamer retrieved proteins. A BIAcore T100 (GE Healthcare, Uppsala, Sweden) was used to measure binding by surface plasmon resonance (SPR) technique. BIAevaluation software (GE Healthcare) was used for analysis. Gel shift assay was also performed to validate the target ligand binding.

[9] = test system: gemcitabine-resistant ASPC-1 engrafted mice; assay: Gemcitabine resistant AsPC-1 tumor in NOD/SCID mice; assay type: in vivo; settings: tail vein, 4 injections at days 1, 3, 5, 7, sacrificed day 9
Procedure: (§3) For gemcitabine resistant tumour test, twelve 5-weeks-old female NOD/SCID mice were injected subcutaneously (S.C.) on the flank with 2.8×10^6 AsPC-1 pancreatic cancer cells in 0.05 ml PBS with 0.15 ml matrigel. After 3 weeks, mice were divided into four groups. One group served as untreated controls and the others injected with P1 (10 ug per injection), P19 (10 ug per injection) and P1 combined with P19 (5 ug of P1 with 5 ug of P19 per injection). Aptamer were injected through tail vein. Animals were injected 4 times at days 1, 3, 5, and 7, and were sacrificed at day 9.
as §3, with “To test chemoresistant tumor regression in mice,” for “For gemcitabine resistant tumour test,”, “ASPC-1 gemcitabine resistant” for “AsPC-1”, “P1,” for “P1 (10 ug per injection),”, “P19” for “P19 (10 ug per injection)”, “P19.” for “P19 (5 ug of P1 with 5 ug of P19 per injection).”

[10] = target: T1, mortalin (mitochondrial Hsp70); assay: Surface plasmon resonance (BIAcore T100); assay type: binding; settings: aptamer biotin-labeled at 3′ end immobilized on SA chip
From the text: as §2

[11] = test system: normal tissues such as liver, spleen, and kidney; T and B cells; assay: Staining of other normal tissues and T and B cells; set-up: species or system human; settings: Cy3 labeled aptamer
Procedure: FIG. 2A-2B. Histology (FIG. 2A) The representative images by histopathological screen in normal tissues. The samples were stained with Cy3 labeled aptamer P1 and P19 respectively. The sample sections were then examined under microscope at 100× magnification. Cy3-labeled RNA. (FIG. 2B) Flow cytometry analysis of P19 and P1 in T and B cells. Cy3-labeled RNAs were tested for binding to T and B cell isolated from human blood.

[12] = target: T2, cell membrane proteins (Homo sapiens, UniProt P38646); assay: Retrieval of cell membrane proteins by biotinylated aptamers and MASS-SPEC; settings: peptide matching fingerprinting
T2 construct: cell membrane proteins were retrieved by biotinylated aptamers; endogenous in cells
T2 sequence (P38646 47-679): as above
From the text: as §2

[13] = test system: Panc-1 cells; assay: Competition of Cy3 labeled P19 with unlabeled clones, confocal; assay type: binding, human; settings: 200 nM Cy3 labeled P19, 1 μM unlabeled clone
Procedure: For competition assays, 200 nM of Cy3 labeled P19 aptamer was used to compete with either unlabeled clones (1 μM). The fluorescence intensity was quantified in the presence of increasing amounts of competitors using confocal microscopy and analyzed statistically. One-way ANOVA was used for statistical significant analysis (P<0.05).

For `C#Cc1cccc(Nc2ncnc3cc(OCCOC)c(OCCOC)cc23)c1` [erlotinib], the “median added to overall survival” value ([1]; addition of erlotinib, randomized study) is listed as 11 days and the survival benefit ([1]; phase III trial of erlotinib with gemcitabine, advanced disease) is listed as “marginal survival benefit”.

In the case of `Nc1ccn([C@@H]2O[C@H](CO)[C@@H](O)C2(F)F)c(=O)n1` [gemcitabine, 4-amino-1-(2-deoxy-2,2-difluoro-β-D-erythro-pentofuranosyl)pyrimidin-2(1H)-on], the “anti-tumor effects compared with PBS group” value [2] is given as “failed to reduce tumor growth”, the 1-year survival rate ([1]; single agent, improved from 16) is given as 19% and the “cytotoxicity (hemoglobin, WBC, neutrophil, platelet)” value [3] is given as “cytotoxicity such as reduction of hemoglobin and neutrophils”. The “cytotoxicity (hemoglobin, WBC, neutrophil, platelet)” value ([3]; listed as Gemcitabine) was “cytotoxicity on RBCs and neutrophils”.

For “truncated P19: P19 truncated to 28mer including the common motif GAAUGCCC, SEQ ID NO:1 (CUCAAUGGCGAAUGCCCGCCUAAUAGGG; listed as RNA, chemistry not fully specified)”, the “internalization in pancreatic cancer cells” value [4] was “internalized into Panc-1 and AsPC-1 cells”, the Kd [5] was 8.77 nM and the “internalization / binding in non pancreatic cancer lines” value [6] was “negative reaction”.

B1: P1: 2′F RNA aptamer selected by whole cell SELEX on Panc-1, SEQ ID NO:4 (nucleic acid)
chain: GGGAGACAAGAAUAAACGCUCAAUGCGCUGAAUGCCCAGCCGUGAAAGCGUCGAUUUCCAUCCUUCGACAGGAGGCUCACAACAGGC
modifications: all phosphodiester, sugars by position and methylation of C not given here; 2'-fluoro modified RNA
In the case of B1, the “internalization in pancreatic cancer cells” value [4] is reported as “punctate regions of Cy3 labeling”, the “survival period, medium level group” value [7] is reported as 15.9±3.17 months and the “No. of Patients, Low (<7) staining” value [7] is reported as 3. The “No. of Patients, Medium (>7 and <14) staining” value [7] was 26, the “No. of Patients, High (>14 and <20) staining” value [7] was 43 and the “recognition of pancreatic cancer versus normal pancreas tissues” value [7] was “recognized pancreatic cancer tissues specifically, not normal pancreas tissues”. The “Survival Period, High (>14 and <20) staining group” value [7] was 13.1 ± 4.36, the “Survival Period, Low (<7) staining group” value [7] was 21.0 ± 2.64 and the “Survival Period, Medium (>7 and <14) staining group” value [7] was 15.9 ± 3.17. For the same molecule, the Kd [5] was 2.2 nM, the gel shift [8] was “shifted band was observed” and the “internalization / binding in non pancreatic cancer lines” value [6] was “No Cy3 signal was observed”. For the same molecule, the “anti-tumor effect of aptamers only (tumor size)” value [9] was “anti-tumor effects in gemcitabine resistance tumour cells significantly”, the “binding by SPR” value [10] was “bound to the mortalin” and the “staining of other normal tissues including T and B cells” value [11] was “negative staining”. For the same molecule, the target ligand identified [12] was “mitochondrial Hsp70 which is mortalin”.

B2: P19: 2′F RNA aptamer selected by whole cell SELEX on Panc-1, SEQ ID NO:2 (nucleic acid)
chain: GGGAGACAAGAAUAAACGCUCAAUGGCGAAUGCCCGCCUAAUAGGGCGUUAUGACUUGUUGAGUUCGACAGGAGGCUCACAACAGGC
modifications: all phosphodiester, sugars by position and methylation of C not given here; 2'-fluoro modified RNA
For B2, the “fluorescence intensity of labeled P19 in presence of unlabeled competitor” value [13] was “significantly decreased”, the “internalization in pancreatic cancer cells” value [4] was “punctate regions of Cy3 labeling” and the “No. of Patients, Low (<7) staining” value [7] was 3. For the same molecule, the “No. of Patients, Medium (>7 and <14) staining” value [7] was 26, the “No. of Patients, High (>14 and <20) staining” value [7] was 43 and the “recognition of pancreatic cancer versus normal pancreas tissues” value [7] was “recognized pancreatic cancer tissues specifically, not normal pancreas tissues”. For the same molecule, the “Survival Period, High (>14 and <20) staining group” value [7] was 13.0 ± 4.29, the “Survival Period, Low (<7) staining group” value [7] was 21.0 ± 2.64 and the “Survival Period, Medium (>7 and <14) staining group” value [7] was 15.6 ± 3.30. The Kd [5] was 13.1 nM, the gel shift [8] was “shifted band was observed” and the “internalization / binding in non pancreatic cancer lines” value [6] was “No Cy3 signal was observed”. The “anti-tumor effect of aptamers only (tumor size)” value [9] was “anti-tumor effects in gemcitabine resistance tumour cells significantly”, the “binding by SPR” value [10] was “bound to the mortalin” and the “staining of other normal tissues including T and B cells” value [11] was “negative staining”. For the same molecule, the target ligand identified [12] was “mitochondrial Hsp70 which is mortalin”.
